The values that follow come from article PMC4896055 (The Journal of Cell Biology, 2016).

B1: Recombinant Mdm36, His6-T7-Mdm36 (natural protein)
chain: MDENGTVKPGYELKGLNSGNSRSNMDKDPIVSKFHRAGLNDSADEEDTDINGNRNTSWITSMISEEKRKVEGKSMLNDEEDLHLSKATLNKCDALVKILADIIKLEFVIHQSWYIRSLHKSVLIQFEVETSGGNKNSAGDSGDDDDDNHNGNLDDSFYKDLSLKCIKKCEKSSLALESLSRDIDQIRDFIMSNTIEDNRVDRLLQNSMTLLLECWIYSMKRLRRLRMKIAGIFVRSKLLLIDHELVTIWHFLQEQNEHETVNNENELKLAETIKSYRAFIKIFIQQLEDSESGSPSSSLFEECLHVFLDIESMYNSLNLNWLLNENKALQERLLSPSSTSENDHTNNLPVIDETKEIEDISSFVNSIVDASMLTHDLTPINSSDSDNLSNGEIDRLDGRRLSSSTSDMSLMMQRTSLQKQLPSLLTAFNNARRLEQELQNACKVNDNKHSTKDTDSNIRRNEHAMSSSVSSIISQNSTLASPSPPMSSSFISTAPSQSSSRMSTLPLSPSSSLLESQSQTLKNNMSQWLNQSRSGLNGTKLIPTNHIGFHSNVLNTLYGIGGGPVSKSYKSNQPSSQNT
B2: Recombinant Num1CC (amino acids 97-294), His6-T7-Num1CC (domain or fragment)
chain: MNFTLELSENLLVECRKLQSSNEAKNEQIKSLKQIKESLSDKIEELTNQKKSFMKELDSTKDLNWDLESKLTNLSMECRQLKELKKKTEKSWNDEKESLKLLKTDLEILTLTKNGMENDLSSQKLHYDKEISELKERILDLNNENDRLLISVSDLTSEINSLQSNRTERIKIQKQLDDAKASISSLKRKVQKKYYQKQ
B3: Recombinant Num1CC^3E (K121E + R262E + R265E), His6-T7-Num1CC^3E (domain or fragment)
chain: B2 chain with K25E, R166E, R169E

Positions count from the first letter of the chain named. In names and notes the source's numbering stands.

The series “SEC-MALS” deals with the molecule itself. Briefly: SEC-MALS. A general note: Size exclusion chromatography separates by hydrodynamic size, large species first.
The target in series [1] is B1. Briefly: co-sedimentation.

On to B1, for which, in “SEC-MALS”, the stoichiometry N (as a rule, the number of molecules, sites or subunits per partner or assembly) turned out to be 2.
With B2, the “stoichiometry N” value in the series “SEC-MALS” is 2. Also, in series [1], the binding result is “binds”.
Consider B3, for which, in series [1], the binding result is “binds”.
